Legend:
human CCR8 [1] = biological target: T1, human CCR8 (human, UniProt P51685 1-355); test: FACS on CHO-K1-human CCR8 cells
T1 construct: whole, on cells; also called hCCR8

cynomolgus CCR8 = biological target: T2, cynomolgus CCR8 (cynomolgus, UniProt G7NYJ2 1-355); test: FACS on HEK293-cynomolgus CCR8 cells
T2 construct: whole, on cells

human CCR8 [2] = biological target: T1, human CCR8; test: FACS on HuT78 cells (endogenous human CCR8)
Experimental: HuT78 cells expressing endogenous human CCR8 were used for determining binding affinities of selected affinity matured anti-CCR8 antibodies. Briefly, a total of […] cells for each well were seeded in 96-well plates and washed with FACS buffer (DPBS containing […]) for once. […] Cells were incubated with 50 μL of diluted antibodies at 4° C. for 1 hour. After primary antibody incubation, cells were washed for 3 times by FACS buffer. Then, cells were stained by Alexa Fbu647 labeled anti-human IgG secondary antibody (Jackson ImmunoResearch, #109606170) at 1:600 dilution in FACS buffer for 0.5 hour at 4° C. After 3 times washed, flow cytometry (Sartourius, iQue3) was performed to measure the binding affinities of antibodies. […]

human CCR8 [3] = biological target: T1, human CCR8; test: FACS, competition with CCL1 on CHO-K1-human CCR8 cells
human CCR8 [4] = biological target: T1, human CCR8; test: FACS, competition with AF647-human CCL1 on CHO-K1-human CCR8 cells
Experimental: (§1) Antibodies were prepared with 3-fold serial dilution ranging from 200 nM to 0.01 nM in FACS buffer. Then, cells were washed by FACS buffer for three times after incubation. […] FlowJo software was used for analysis. Data was plotted as the logarithm of antibody concentration versus mean fluorescence signals. IC₅₀ values were determined in GraphPad Prism 8 (GraphPad Software) using a log(agonist) vs. response-Variable slope (4 parameters) curve fit.

human CCR8 [5] = biological target: T1, human CCR8; test: FACS, competition with AF647-human CCL1 on HEK293-human CCR8 cells
Experimental: as §1

T1 sequence (P51685 whole entry): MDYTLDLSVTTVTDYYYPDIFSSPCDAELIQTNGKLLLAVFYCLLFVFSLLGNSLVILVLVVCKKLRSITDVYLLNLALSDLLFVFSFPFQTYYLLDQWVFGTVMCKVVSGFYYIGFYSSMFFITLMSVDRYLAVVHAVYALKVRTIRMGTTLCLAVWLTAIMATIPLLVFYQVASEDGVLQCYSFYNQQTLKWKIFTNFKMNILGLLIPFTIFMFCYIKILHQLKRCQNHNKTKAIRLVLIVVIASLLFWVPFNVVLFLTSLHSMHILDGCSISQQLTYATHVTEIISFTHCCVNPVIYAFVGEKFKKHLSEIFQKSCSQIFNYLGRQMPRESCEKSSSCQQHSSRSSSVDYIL
T2 sequence (G7NYJ2 entry or part of it): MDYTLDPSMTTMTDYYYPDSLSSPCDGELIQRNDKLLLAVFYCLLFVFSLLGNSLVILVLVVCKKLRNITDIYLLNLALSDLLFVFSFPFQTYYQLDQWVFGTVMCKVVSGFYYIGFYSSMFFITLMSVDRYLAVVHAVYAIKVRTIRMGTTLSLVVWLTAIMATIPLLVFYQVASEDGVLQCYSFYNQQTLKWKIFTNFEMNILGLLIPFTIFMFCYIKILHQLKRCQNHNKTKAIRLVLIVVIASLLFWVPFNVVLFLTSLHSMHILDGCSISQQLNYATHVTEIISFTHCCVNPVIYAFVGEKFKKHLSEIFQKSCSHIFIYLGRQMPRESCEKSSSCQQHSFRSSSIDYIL

| Binder | EC50 (human CCR8 [1]) | Max MFI (human CCR8 [1]) | EC50 (cynomolgus CCR8) | Max MFI (cynomolgus CCR8) | Max MFI (human CCR8 [2]) | IC50 (human CCR8 [3]) | Max Inhibition (%) (human CCR8 [3]) | EC50 (human CCR8 [2]) | IC50 (human CCR8 [4]) | Max Inhibition (%) (human CCR8 [4]) | IC50 (human CCR8 [5]) | Max Inhibition (%) (human CCR8 [5]) |
| --- | --- | --- | --- | --- | --- | --- | --- | --- | --- | --- | --- | --- |
| Hu149-13 (antibody, human IgG1, V domains shown, human IgG1) VH: EVQLVESGGGLVQPGGSLKLSCAASGFTFNTYAMNWVRQASGKGLEWVGRIRSKSNFYATAYAASVKGRFTISRDDSKNTAYLQMNSLKTEDTAVYYCTRGREYGRSYAMDYWGQGTLVTVSS VL: DIVMTQSPLSLPVTPGEPASISCRSSKSLLHSNANTYLYWFLQKPGQSPQLLIYRMSNLASGVPDRFSGSGSGTDFTLKISRVEAEDVGVYYCMQHLEYPLTFGGGTKVELK | 0.1 nM | 653000 MFI | 0.193 nM | 4.37e+06 MFI | 39100 MFI | 0.0841 nM | 102% | – | – | – | – | – |
| Hu149-21 (antibody, human IgG1, V domains shown, human IgG1) VH: EVQLVESGGGLVQPGGSLKLSCAASGFTFNTYAMNWVRQASGKGLEWVGRIRSKSNFYATAYAASVKGRFTISRDDSKNTAYLQMNSLKTEDTAVYYCTRGREYGRSYAMDYWGQGTLVTVSS VL: DIVMTQSPLSLPVTPGEPASISCRSSKSLLHSNANTYLYWFLQKPGQSPQLLIYRMSNLASGVPDRFSGSGSGTDFTLKISRVEAEDVGVYYCMQHLKYPLTFGGGTKVELK | 0.642 nM | 794000 MFI | 0.946 nM | 4.15e+06 MFI | 240000 MFI | 0.796 nM | 101% | – | – | – | – | – |
| Hu149-17 (antibody, human IgG1, V domains shown, human IgG1) VH: EVQLVESGGGLVQPGGSLKLSCAASGFTFNTYAMNWVRQASGKGLEWVGRIRSKSNFYATAYAASVKGRFTISRDDSKNTAYLQMNSLKTEDTAVYYCTRGRDYGSSYAMDYWGQGTLVTVSS VL: DIVMTQSPLSLPVTPGEPASISCRSSKSLLHSNANTYLYWFLQKPGQSPQLLIYRMSNLASGVPDRFSGSGSGTDFTLKISRVEAEDVGVYYCMQHLSYPLTFGGGTKVELK | 0.0755 nM | 645000 MFI | 0.123 nM | 4.11e+06 MFI | 29600 MFI | 0.0698 nM | 100% | – | – | – | – | – |
| Hu149-22 (antibody, human IgG1, V domains shown, human IgG1) VH: EVQLVESGGGLVQPGGSLKLSCAASGFTFNTYAMNWVRQASGKGLEWVGRIRSKSNFYATAYAASVKGRFTISRDDSKNTAYLQMNSLKTEDTAVYYCTRGREYGSAYAMDYWGQGTLVTVSS VL: DIVMTQSPLSLPVTPGEPASISCRSSKSLLHSNANTYLYWFLQKPGQSPQLLIYRMSNLASGVPDRFSGSGSGTDFTLKISRVEAEDVGVYYCMQHLKYPLTFGGGTKVELK | 0.216 nM | 793000 MFI | 0.462 nM | 4.25e+06 MFI | 173000 MFI | 0.459 nM | 101% | – | – | – | – | – |
| Hu149-20 (antibody, human IgG1, V domains shown, human IgG1) VH: EVQLVESGGGLVQPGGSLKLSCAASGFTFNTYAMNWVRQASGKGLEWVGRIRSKSNFYATAYAASVKGRFTISRDDSKNTAYLQMNSLKTEDTAVYYCTRGKEYGSSYAMDYWGQGTLVTVSS VL: DIVMTQSPLSLPVTPGEPASISCRSSKSLLHSNANTYLYWFLQKPGQSPQLLIYRMSNLASGVPDRFSGSGSGTDFTLKISRVEAEDVGVYYCMQHLKYPLTFGGGTKVELK | 0.129 nM | 751000 MFI | 0.158 nM | 4.02e+06 MFI | 253000 MFI | 0.147 nM | 100% | – | – | – | – | – |
| Hu149-16 (antibody, human IgG1, V domains shown, human IgG1) VH: EVQLVESGGGLVQPGGSLKLSCAASGFTFNTYAMNWVRQASGKGLEWVGRIRSKSNFYATAYAASVKGRFTISRDDSKNTAYLQMNSLKTEDTAVYYCTRGRDYGSSYAMDYWGQGTLVTVSS VL: DIVMTQSPLSLPVTPGEPASISCRSSKSLLHSNANTYLYWFLQKPGQSPQLLIYRMSNLASGVPDRFSGSGSGTDFTLKISRVEAEDVGVYYCMQHLKYPLTFGGGTKVELK | 0.0659 nM | 672000 MFI | 0.142 nM | 3.8e+06 MFI | 228000 MFI | 0.114 nM | 101% | – | – | – | – | – |
| Hu149-15 (antibody, human IgG1, V domains shown, human IgG1) VH: EVQLVESGGGLVQPGGSLKLSCAASGFTFNTYAMNWVRQAPGKGLEWVGRIRSKSNFYATAYAASVKGRFTISRDDSKNTAYLQMNSLKTEDTAVYYCTRGRDYGSSYAMDYWGQGTLVTVSS VL: DIVMTQSPLSLPVTPGEPASISCRSSKSLLHSNANTYLYWFLQKPGQSPQLLIYRMSNLASGVPDRFSGSGSGTDFTLKISRVEAEDVGVYYCMQHLEYPLTFGGGTKVELK | 0.128 nM | 627000 MFI | 0.282 nM | 3.93e+06 MFI | 21300 MFI | 0.104 nM | 99.3% | 0.108 nM | – | – | – | – |
| Hu149-14 (antibody, human IgG1, V domains shown, human IgG1) VH: EVQLVESGGGLVQPGGSLKLSCAASGFTFNTYAMNWVRQASGKGLEWVGRIRSKSNFYATAYAASVKGRFTISRDDSKNTAYLQMNSLKTEDTAVYYCTRGREYGSAYAMDYWGQGTLVTVSS VL: DIVMTQSPLSLPVTPGEPASISCRSSKSLLHSNANTYLYWFLQKPGQSPQLLIYRMSNLASGVPDRFSGSGSGTDFTLKISRVEAEDVGVYYCMQHLEYPLTFGGGTKVELK | 0.0626 nM | 663000 MFI | 0.157 nM | 4.42e+06 MFI | 28600 MFI | 0.0816 nM | 100% | 0.184 nM | – | – | – | – |
| Hu149-19 (antibody, human IgG1, V domains shown, human IgG1) VH: EVQLVESGGGLVQPGGSLKLSCAASGFTFNTYAMNWVRQASGKGLEWVGRIRSKSNFYATAYAASVKGRFTISRDDSKNTAYLQMNSLKTEDTAVYYCTRGREYGSSYAMDYWGQGTLVTVSS VL: DIVMTQSPLSLPVTPGEPASISCRSSKSLLHSNANTYLYWFLQKPGQSPQLLIYRMSNLASGVPDRFSGSGSGTDFTLKISRVEAEDVGVYYCMQHLKYPLTFGGGTKVELK | 0.161 nM | 666000 MFI | 0.214 nM | 3.95e+06 MFI | 187000 MFI | 0.168 nM | 100% | – | – | – | – | – |
| 348E2D11 (antibody, V domains shown, purified murine hybridoma antibody) VH: QVQLVETGGGLVRPGNSLKLSCVTSGFSFSNYRMHWLRQPPGKRLEWIAVITVKSDNYGANYAESVKGRFTISRDDSKSSVYLQMNRLREEDTATYYCSSLGRVAYWGQGTLVTVSA VL: DIVMTQSQKFMFTSVGDRVSVTCKASQNVDTNVVWYQQKPGQSPKALIYSASSRYSGVPDRFTGSGSGTDFTLTISNVQSEDLAEYFCQQHNSFPLTFGAGTKLELI | – | – | – | – | – | – | – | – | 0.231 nM | 95% | 0.368 nM | 100% |
| 262C2G7 (antibody, V domains shown, purified murine hybridoma antibody) VH: DVHLQESGPGLVKPSQSLSLTCSVTGYSITSGYYWNWIRQFPGNKLEWMGYISYDGSNNYNPSLKNRISITRDISKNQFFLKLNSVTTEDTATYYCARQIGLRRGAMDYWGQGTSVTVSS VL: DIQMTQSSSYLSVSLGGRVTITCKASDHINNWLAWYQQKPGNAPRLLISGSTSLKAGVASRFSGSGSGKDYTLTITSLQTEDVATYYCQQYWGIPFTFGGGTKLEIK | – | – | – | – | – | – | – | – | 1.57 nM | 95.6% | 0.632 nM | 86.1% |
| 273H2G6 (antibody, V domains shown, purified murine hybridoma antibody) VH: DVQLQESGPGLVKPSQSLSLTCSVTGYSITSGYYWNWIRQFPGNKLEWMGYISYDGSNNYNPSLKNRISITRDISKNQFFLKLNSVTTEDTATYYCARQVGLRRGAMDYWGQGTSVTVSS VL: DIQMTQSSSYLSVSLGGRVTITCKASDHINNWLAWYQQKPGNAPRLLISGSTSLKAGVASRFSGSGSGKDYTLSITSLQTEDVATYYCQQYWSIPYTFGGGTKLEIK | – | – | – | – | – | – | – | – | 2.48 nM | 91.3% | 0.782 nM | 85.8% |
| 191E12H8 (antibody, V domains shown, purified murine hybridoma antibody) VH: DVQLQESGPGLVKPSQSLSLTCSVTGYSITSGYYWNWIRQFPGNKLEWMGYISYDGSNNYNPSLKNRISITRDISKNQFFLKLNSVTTEDTATYYCARQIGLRRGAMDYWGQGTSVTVSS VL: DIQMTQSSSYLSVSLGGRVTITCKASDHINTWLAWYQQKPGNAPRLLISGSTSLKAGVASRFSGSGSGKDYTLTITSLQTEDVATYYCQQYWGIPFTFGGGTKLEIK | – | – | – | – | – | – | – | – | 13.3 nM | 89.7% | 0.934 nM | 85.6% |
| 234G9C12 (antibody, V domains shown, purified murine hybridoma antibody) VH: DVQLQESGPGLVKPSQSLSLTCSVTGYSITSGYYWNWIRQFPGNKLEWMGYTSYDGSNNYNPSFKNRISITRDISKNQFFLKLNSVTTEDTATYYCARQIGLRRGAMDHWGQGTSVTVSS VL: DIQMTQSSSYLSVSLGGRVTITCKASDHINNWLAWYQQKPGNAPRLLISGSTSLRAGVASRFSGSGSGKDYTLTITSLQTEDVATYYCQQYWGIPFTFGGGTKLEIK | – | – | – | – | – | – | – | – | 1.34 nM | 96.8% | 0.812 nM | 94% |
